“And” between values parts separate entries of the source, which are not always exact repeats. Identical values can stand only once. Blank lines part the entries; values can stand above or below the substance they belong to.
What was measured:
[1] = molecular target: H3K9me3 peptide, FITC-labeled; experiment: fluorescence polarisation; 0.5 nM FITC-labeled peptide, chromodomain serially diluted (wild types 200-0.2 µM; Cbx7.V1 and Cbx.VDs 50 µM-50 nM); 25 °C, 30 min; 25 mM HEPES pH 7.5, 150 mM NaCl, 1 mM DTT, 0.01% TritonX-100; one-site total binding model; values of single replicates
[2] = molecular target: H3K9me3 peptide, N-terminal FITC; experiment: fluorescence polarisation; 0.5 nM FITC-labelled peptide; chromodomains 200-0.2 µM (wild type) or 50 µM-50 nM (Cbx7.V1 and all Cbx.VDs); 30 min at 25 °C; 25 mM HEPES pH 7.5, 150 mM NaCl, 1 mM DTT, 0.01% TritonX-100; one-site total binding model
[3] = molecular target: H3K27me3 peptide, FITC-labeled; experiment: fluorescence polarisation; 0.5 nM FITC-labeled peptide, chromodomain serially diluted (wild types 200-0.2 µM; Cbx7.V1 and Cbx.VDs 50 µM-50 nM); 25 °C, 30 min; 25 mM HEPES pH 7.5, 150 mM NaCl, 1 mM DTT, 0.01% TritonX-100; one-site total binding model; values of single replicates
[4] = molecular target: H3K27me3 peptide, N-terminal FITC; experiment: fluorescence polarisation; 0.5 nM FITC-labelled peptide; chromodomains 200-0.2 µM (wild type) or 50 µM-50 nM (Cbx7.V1 and all Cbx.VDs); 30 min at 25 °C; 25 mM HEPES pH 7.5, 150 mM NaCl, 1 mM DTT, 0.01% TritonX-100; one-site total binding model
[5] = molecular target: Histone H3 H3K9me3 peptide (Homo sapiens) (UniProt P68431); details: cited from earlier work
[6] = molecular target: FITC-labeled H3K9me3 peptide; experiment: fluorescence polarisation; 0.5 nM FITC-labeled peptide, chromodomain serially diluted (wild type 200-0.2 µM; Cbx7.V1 50 µM-50 nM); 25 mM HEPES pH 7.5, 150 mM NaCl, 1 mM DTT, 0.01% TritonX-100; 30 min at 25 °C; one-site total binding model
[7] = molecular target: H3K27 peptide (non-methylated), N-terminal biotin; experiment: phage ELISA; details: read off a plot
[8] = molecular target: H3K27me3 peptide, N-terminal biotin; experiment: phage ELISA; details: read off a plot

Substance: Cbx1 chromodomain with the Asp9/Glu33 double substitution (from UniProt P83916 20-73) (domain or fragment)
Kd [1]: 582 nM and 632 nM and 600 nM

Substance: Cbx1.VD chromodomain, Asp9/Glu33 (tags removed) (from UniProt P83916 20-73) (domain or fragment)
Kd [2]: 600 nM

Substance: Cbx3 chromodomain with the Asp9/Glu33 double substitution (from UniProt Q13185 29-86) (domain or fragment)
Kd [1]: 390 nM and 290 nM and 370 nM

Substance: Cbx3.VD chromodomain, Asp9/Glu33 (tags removed) (from UniProt Q13185 29-86) (domain or fragment)
Kd [2]: 350 nM

Substance: Cbx5 chromodomain with the Asp9/Glu33 double substitution (from UniProt P45973 18-75) (domain or fragment)
Kd [1]: 560 nM and 440 nM and 510 nM

Substance: Cbx7 chromodomain (from UniProt O95931)
Kd [5]: 55 µM

Substance: Cbx7.wt (domain or fragment)
Kd [6]: 27 µM

Substance: Cbx7.wt G7C; E8D; Q9N; K33E; P37Q; K38E
response (Absorbance at 450 nm) [7]: 0.09 | response (Absorbance at 450 nm) [8]: 0.52

Now from value to substance:

Kd [3]: 2400 nM and 2100 nM and 4300 nM | Kd [1]: 4000 nM and 6000 nM and 5000 nM
Substance: Cbx2 chromodomain with the Asp9/Glu33 double substitution (from UniProt Q14781 9-62) (domain or fragment)

Kd [2]: 5000 nM | Kd [4]: 3000 nM
Substance: Cbx2.VD chromodomain, Asp9/Glu33 (tags removed) (from UniProt Q14781 9-62) (domain or fragment)

Kd [2]: 500 nM
Substance: Cbx5.VD chromodomain, Asp9/Glu33 (tags removed) (from UniProt P45973 18-75) (domain or fragment)

response (Absorbance at 450 nm) [7]: 0.12
Substance: Cbx7.wt E8D; Q9D; V10I; K33E; P37L; K38E

response (Absorbance at 450 nm) [7]: 0.08 | response (Absorbance at 450 nm) [8]: 0.55
Substance: Cbx7.wt E8H; Q9D; A12P; K33R; G34D; P37E; K38Q

response (Absorbance at 450 nm) [7]: 0.11 | response (Absorbance at 450 nm) [8]: 1.9
Substance: Cbx7.wt G7C; E8D; Q9N; F11Y; A12P; P37L; K38E

response (Absorbance at 450 nm) [7]: 0.12 | response (Absorbance at 450 nm) [8]: 0.5
Substance: Cbx7.wt G7C; Q9Y; V10I; A12S; K33E; K38E; S40M

response (Absorbance at 450 nm) [7]: 0.13 | response (Absorbance at 450 nm) [8]: 0.73
Substance: Cbx7.wt G7F; Q9D; A12P; P37S; K38E

Kd [1]: 21000 nM and 26000 nM and 16000 nM
Substance: Cbx8 chromodomain with the Asp9/Glu33 double substitution (from UniProt Q9HC52 8-61) (domain or fragment)

Kd [2]: 20000 nM | Kd [4]: > 50000 nM
Substance: Cbx8.VD chromodomain, Asp9/Glu33 (tags removed) (from UniProt Q9HC52 8-61) (domain or fragment)

Source: publication PMC9666628
